Test: label from the status in PepcDB records
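Also: failed if final PepcDB status was selected cloned or expressed and not failed if soluble or beyond.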

| Sequence | protein production |
| --- | --- |
| MNSEENTDSIPIDLILDILSRLPSKSIARCRCVSKLWESMIRQSYFTELFLTRSSSRPHLLIAVEQEGEWKFFSLPQPKNYLGKSSLVVAANLHLKFFEDKRPQHGCSYASSLIYFPNMTIRKKGDDHLGVICNPSTGQYGYVILPPLLDFKSVPYGKFLGFDPIDKQFKVLIPIFDFDKHQTDHHILTLGAETVGWRKIQSPLRYLPHSNGTICINGILYYLAKINYAMDKNVLVCFDVRSENFVFLRLNTYCSSTKLVNYKGKLGMINQEYVDDGGFPLKLSVWVLEDVGKEEWSTYVYTLRDDNKVDQVKYNLSVVGVTASGEIVLVKKTQTLKPFYVLYFNPDKNTLLTVEVKGLHRGLYAVHRIYAFVDHVEDLEFNIMKTTYAAKSKFSQEDRF | failed |
| MNSEWIWRLRARLGYGVARQLLGWPWLVKQPRAWQWMQGQFSRMANLGHRDAQAFYGHLLLFRGQGFGAREEGLRLLRLAASAGDGKSAYQLGVQALKGDSRQAPDALAASRHWALAAEAGHPLAARKLAELYRDGGPGLAPDSERAEHYAQRASALGLLEHHHHHH | failed |
| MNSIRSSPAIGENRTVYIGSYDGKLYAFNPDGTLKWSYTTGNQITGSATIGADGTICIGSYDRRLYTINPDGTLKWSYTTGNQIFSSAAIGEDGTIYVGSRDNKLYALNPDGTLKWSYTTGNQIFSSAAIGEDLEHHHHHH | failed |
| MNSIVSTVRGILTLSRSETFDSPRDEAKSDLKVLSVAWNQVCSGFIVGTNHGFNVYSCKPMIKKSISRAPHESGFKVAEMLFLSNLFAFVGNGYNNSEYPPNKVFVWDDYRNCCLSELTFKSEVIAVKLAREHVVVVLKQNIYVYTFNNLKVDRVIETLMNPKGLCCVTHVESKAVLACPGFHPGQVQVHDLRWNVIKFIKAHDSAIACMTLTLDGSLLATASTKGTLIRIFNAVDGTLLQEFRRGVERAEIYNVAISSNLKWVAASSEKGTLHVFRLRPDILSFDPASSSSFIRVILPKYLYENERSFAQFSLPASTKFIVGFGSENTVLLVGIDGSFRRCKFDHADGGQMVELEHKYFFSLQETGNTMVGGV | failed |
| MNSKENLKIVQLSDLHIKKDFNADRLDKVIQKTNEQNPDFIIFSGDLYDNYSQYNENEAVISKLKSLKAKYGKIAIWGNRDYGGGAVKEYANIMAESDFSLLRNENQVFTLDNGKKILFTGLDDALLGNPQFPSLEHHHHHH | not failed |
| MNSLSLFSPSFTDSVFDALDRSLGPNFGVFAPIKNASCGMPSVDIRETEKAYVMEVDLPGYSEKDVEISLKDRLMTISSSKKEEKEDKGAEYIIKERSSRHFMRRFTLPEDINSDEVSAKFENGVLVVNIPRKPDTQPKQIEIKTA | failed |
| MNSMAKKDNLTEELKKHFGFDTFKGNQRAIIENVLAGNDTFVLMPTGGGKSLCYQLPSLMMQGTAIVISPLIALMKNQVDAMRNFSEEDGVAHFINSSLNKSAIDQVKDDIRNGRTKLLYVAPESLTKDENVEFLRQVNISFYAVDEAHCISEWGHDFRPEYRRIRPIINEIGKRPLIALTATATPKVQHDIQKNLGMIDASVFKSSFNRSNLYYEIRPKTANIDREIIKYIKSNEGKSGIIYCLSRKKVEEFADILKANGIKALPYHAGMDSQQRSSNQDAFLMEKADVIVATIAFGMGIDKPDVRYVIHYDIPKSLEGYYQETGRAGRDGGEGQCIAFYAYKDLQKLEKFMQGKPVAEQEIGKQLLLETAAYAETSVCRRKVLLHYFGEEYLEENCGNCDNCLNPKKKVEAKELLSAVLEVVGTLKEKFKAEYIVNMLVGNETSEIQSYKHNELEIFGSGSDEEEKTWNAVIRQALIAGYLAKDIENYGLLKITEKGKEFIKKPVSFKITEDNEFDEEEEEVPVRGGAACAVDPALFSMMKDLRKKLSKRLEVPPFVIFQDPSLEAMATTYPVTLEELQNIPGVGAGKAKRYGKEFIELIKRHVEENEIERPEDLRVRTVANKSKLKVSIIQRIDRKVALDEIAMTNGLEFNELLDEIEAIVYSGTRINIDYFLNDVMDEDHIDDIYEYFKDSETDDLEDAIEELGGDYTEEEIRLVRIKFLSEMAN | failed |
| MNSNRSLLVMGLLLVSFLIFTQWQQDFNPEIQAQKQAQQQSRDVPHATNTANAITEHMTKGKTITVESDVLRLVIDTLGGDVIESDLLAHKASLDSTDPLKLLTTEGLIYTAQSGLVGKNGIDTHIGRAPYQVTQDHFTLAKGQNEIVVPMTFEQDGVMYTKTFTLKRGSYDVAVSFDIQNNSANTIEVQPYGQIKHSLLDSSGNLAMPTYTGGAYSSSETNYKKYSFDEMTKANLNIDTKGGWVALLQHYFVSAWVPNQDASNTLYSRTHNGVATIGYRGPITTVKPNTKTTITSQLWTGPKDQKEMAQAATHLELTVDYGWAWFIAKPLFWLLIFIHSIIGNWGLAIMGVTLVVKSLLYPLTKAQYTSMAKMRMLQPKLQELRERYGDDRQQMSQEMMKLYKQEKVNPMGGCLPLILQMPIFIALYWTFMEAVELRHAPFFGWIQDLSAQDPYYIFPVLMGLSMFLLQKMSPTAVADPTQLKVMTFMPVIFTVFFLWFPSGLVLYWLTSNCITIVQQWLIYRNLEKKGLHTRKK | failed |
| MNSPHMDYALAPRASGPASWLETFLVTALVIGVGLWLAPEDPLQVQGEFPWSVLAPLLLGVRYGFVRGLISASLLVAAFFALRHSGLASYAQVAPSYIVGVLVCGMLVGEVRDLWERRLLRLQMANEYRQYRLDDFTRAHQILRVSHDRLEQRLAGSDQSLRSSLLGLRDRLRAAPNGGDPLSLLAEPVLTLLGQYGSLRVAGLYRVEQGASAAPQLSLLASIGTMGPLDSQDLLVRMCLEREELVSVREELLDSGAQASVSSLQACVPLVDTQGQVLAILAVRQMPFFAFQERTLSLLALLAGHIADLLHPDPQVLQLQSADAQHFTRQLKRSLVDVERHGLSGCLYAFELTQPNDELARLFERSQRGLDLHLSLANARGHELLLVLLPLTSAEGAQGYLARLGKLVHEHFGMSVELAGLGVKVLPYDLESARQRDGLRNYLYNECGLNDQQVAV | failed |
| MNSSESKSLVVIGGGGHASVLVDILRSQQREILAIVSPENISQRRIFSGITHLKNDDDILRFSPDSVNLVNGVGMLPKSGLKRKLNEYFLSLGYTFETVISDSAQVSSFAEIEQGAQVFSGAIIQAGVVIDAHTIINSGVIIEHDCHIGEYNHIAPKATLCGQVTTHSNVYVGANATVIQNITLEQGSIVGAGAIVTKNISSEQICYPSRSVLK | failed |
| MNSSPPPANSANGDTTNNGENGQDLNLNFLDKIRLSAKRDAKEDEGEELPTELNTINSAGGFLVVSPDKLSVKYTNTNLHGHDVGVVQANKPAPIKCLTYYFEIFVKDSGIKGQIAIGFTKESFKMRRQPGWEVNSCGYHGDDGYLYRGQGKGEPFGPKFTKDDAVGGGINYASQEFFFTKNGTIVGKIPKDIRGHLFPTVAVHSQNEEVLVNFGKKKFAFDIKGYEASERNKQQLAIEKISIPPNIGYGLVKTYLLHYGYEETLDAFNLATKNTVPPIHIDQENAIDEDDSSYALKQRKNLRQLVRNGEIDTALAELQKLYPQIVQDDKSVVCFLLHCQKFIELVGKLEEGVNYGRLELAKFVGLTGFQDIVEDCFALLAYEKPEESSVWYFLEDSQRELVADAVNAAILSTNPNKKDVQRSCHLQSHLEKLLRQLTVCCLERRSLNGDQGETFRLRHVLNNNR | failed |
| MNSTEITQNTDVPSHFRSIKTFVLRTGRMTEGQKRNYEAFYQKWCIPYTESPIDFQTLFQNDNPVIIEIGFGMGTATAQIAEDNPDKNYLGIEVFKAGVGKLLGEIEEKKLNNLRIIEHDAIEVLENMINNESVDGFHIFFPDPWQKKRNHKRRLVRRPRTDLLSKKLKDGGYIYMVTDWENYAEDAFEQLSETPNLKSKYEKFAPSQSWRPTTKFEKKGLKKEHVINELIFEKD | failed |
| MNTGMGLIWIAGASGLLAFLTSLLYFFRQDRKFLALSEKLELIAGVGLVFAIFLLAFYLLGVDTQYSYVFQHSSTDLAWHYRFSALWAGQEGSFLIWTGFIFVMLAITRFTGTGKVLRETEIFSIMRSVSLFVASVFLLLLALKNPFSMYYYTGTGVPDVTNWNLFAEPFVVSYGQGMNPLLRNPWMAIHPPLLFLGYAAFTLPFSAAIGGLVLKDSRWSELATGWMRVSWLFLTLGIGFGAFWAYEVLGWGAWYWTWDPVETSSLIPWLTATAYLHAKLRARQGEYGFLLPMLALVSFILVIFSTFVTRSGLWVSVHSWQDFTMEGMIIALFLVVLIGSSAVLLVRKYFSEE | failed |
| MNTIRPVSDLRNNFADISKIVHQSQQPVFLTKNGYGDMVVMSMETFEDMKFESDIYSKLQEAEKQASLTGKRFSSKDVFEEIQKLISELEHHHHHH | not failed |
| MNTLSIYRFKQWLKEGESPLALTLFRIAKSIRHFELPTPRLLNKVLYGLHKTLCTQWQAFTHLIFYVPAFKGRLESYGKRTLLYGGLPFFSGPLTMRIGNDCRISGQTTFSGRTNSDNPTLEVGDNVDICWQTTIAVGNKVIIGNNVRIAGQGFLCGYPGHPIDPTERALGKPDLDSQVGDIILEQDVWLGSRVSIIGNVTVGEGTIVASGSVVTKSLPPFVLAAGNPAKVIKKLDVNASNTIKEEIHYEA | failed |
| MNTLSVLLSLFTVIVVQRVFKKLSISLLSGVIVMILSLKVRNILEIFFWTVSSDSFWSLIVTVFLIYLLSGMMEKSGDYSRFSEEMRTIFSKNVDSFVPALIGLMPMPGGALFTAPIVKNSLPEENSLKLAVKNYWFRHTIEFFWPIYPAVVLVSELSGIHPGKVSLTLFPVFAIAFFLGWFFFNGKQLPCLSKPRSFFNLFPLIPVLGTGVLILLFKVSGWFALLLSTSGYAVFRRRYLLKTLKQVFNKWDVFLVLFFVYIYKVVVEHSGVGEGIAAEFVRWNLSPWILLIFLPLVSGISTGITQAAVGISLPVLMEVFSSKYAVYTYMFAVGGVILSPVHLCVVLSAKFFEVEVFDILKKVFLPLVLTLILGALVLGVIL | failed |
| MNTSEHEREHDHVIEVTDLRRVYGGDFEAVRGITFSVERGELFALLGTNGAGKTSTVELLEGLAAPSGGRVRVLGHDPYEERAAVRPRTGVMLQEGGFPSELTVAETVRMWAGCTSGARPVGEALSLVGLERRPDVRVKQLSGGERRRLDLALALLGRPEVLFLDEPTTGLDAEGRQETWELVRELRDGGTTVLLTTHYLEEAEGLADRLAILHEGRIATAGTPAEVTAAQPSRISFDLPDGYFLGDLPPLADLGVSTHETTGRTVRLRTHELQRTATALLLWAQRAQVELRGLDVRSASLEEAFLRIAREAAGDRPGRPGRTDVSGTTASGKEAVALEHHHHHH | not failed |
| MNTSSSFKALASPPLISTSRPTTKSFPNPRFTSRFSPKPITCMRDSLNLGSNPKAPSPFSLATVSVDAPLGTKTSDKLRILVSEFRSLTEPIDRVKRLLNYAATLAPLDESARISENRVTGCTTQVWLEIKMDEFGRMRFKADSDSEISKGFCSCLIWILDGAKPEEVMGVRSEDLSEMNVGVHGKEQSRVNTWHNVLMSMQKRTMTLVATDVAHQRGQRPPHQHDLLFKYVNGSYMESSKVHDYSISLLPLYYDFII | failed |
| MNTTDRDASHTLLEQVNQALQDNTPLRIRGGNSKAFLGREVTGEPLDTRAHRGIVSYDPTELVITARAGTPLSEVLQALDAAGQMLPCEPPDIGAATLGGVVAAGLSGPRRPWSGSVRDFVLGTRLITGLGKHLRFGGEVMKNVAGYDVSRLLTGSFGCLGVLTEVSLKVLPKPRLCSSIALEMDSARALACLAEWGQQPMPISAASHDGRVLRLRLEGGEGSVAAAHERLGGELIDATYWQQLNEQRLPFFFDPGPLWRVCVPADTGVLDLPGEQLIDWAGAQRWLKSDASGDAIRAMTASVGGHATCYSQGRDDSPFHPLTTPLLRYHQALKTRLDPQGIFNPGRLYREL | failed |
| MNVAILLAAGKGERMSENVPKQFLEIEGRMLFEYPLSTFLKSEAIDGVVIVTRREWFEVVEKRVFHEKVLGIVEGGDTRSQSVRSALEFLEKFSPSYVLVHDSARPFLRKKHVSEVLRRARETGAATLALKNSDALVRVENDRIEYIPRKGVYRILTPQAFSYEILKKAHENGGEWADDTEPVQKLGVKIALVEGDPLCFKVTFKEDLELARIIAREWERIP | not failed |
| MNVDILKQRAKAFDYVFDAIVVTDLQGFIIDWNKGSETLYGYSKEQAIGQPVNMLHVPGDTEHITSEVISAVENQGKWTGEIRMLHKDGHIGWIESMCVPIYGENYQMVGALGINRDITLEHHHHHH | not failed |

Reference: a protein production outcome set (Wang et al. 2014)
